In patent US6833248B2, “Human caspase-12 materials and methods” (Pharmacia & Upjohn Company, priority 2000, dated 2004):

B1: ΔCARD: variant of human caspase-12 missing the CARD domain, with Ser-205 to Gly mutation (SEQ ID NO: 79) (protein, listed as Homo sapiens)
chain: SALLEIQGAQPSGKLKLCPHAHFHELKTKRADEIYPVMEKERRTCLALNIRNKEFNYLHNRNGSELDLLGMRDLLENLGYSVVIKENLTAQEMETALRQFAAHPEHQSSDSTFLVFMSHGILNGICGTKHWDQEPDVLHDDTIFEIFNNRNCQSLKDKPKVIIMQACRGNGAGIVWFTTDSGKASADTHGRLLQGNICNDAVTKAHVEKDFIAFKSSTPHNVSWRHETNGSVFISQIIYYFREYSWSHHLEEIFQKVQHSFETPNILTQLPTIERLSMTRYFYLFPGN

Columns and labels:
GRP 78 = test: Induction of GRP 78 in cell cultures (control Western blot); assay type: cell-based; settings: tunicamycin treatment
Description: (§1) Cell cultures were treated with 1 μg/ml tunicamycin or 2 μM A23187 (Calbiochem) and harvested over time. Cells were lysed in detergent buffer, cellular proteins resolved on NuPAGE gels and subjected to Western blot analysis using the same antibody as in Example 8A above. […] (BACHEM) for 40 hours.

[1] = test system: endogenous human caspase-12; test: Induction of endogenous caspase-12 protein by ER stress-inducing agents in SH-EP cells (Western blot); assay type: cell-based; settings: SH-EP cells, 1 μg/ml tunicamycin, harvested over time
Description: Reports in the literature indicated a strong activation of murine caspase-12 in response to agents which induce an endoplasmic reticulum (ER) stress response, such as tunicamycin or the Ca^2+ ionophore A23187. The activation of endogenous human caspase-12 by these ER stress-inducing agents in SH-EP and HEK293 cells was evaluated by Western blot analysis of cell lysates. SH-EP is a neuroblastoma cell line that endogenously expresses human caspase-12 at detectable levels. HEK293 is a transformed kidney cell line that lacks detectable caspase-12.
as §1
The biological significance of caspase-12 up-regulation by the ER stress-inducing agent A23187 in apoptosis was further investigated. SH-EP cells were treated with 2 μM A23187 for 40 hours to induce expression of endogenous caspase-12. One control culture was left untreated. Of the four cultures treated with A23187, one culture received 10 μg/ml cycloheximide (CHX) to block new protein synthesis and two cultures were subjected to an apoptotic stimulus, either 250 ng/ml α-Fas antibody for 24 hours or 1200 microjoules UV irradiation. The cultures were harvested after 6.5 hours. Western blot analysis of caspase-12 expression and activation was done as described above in Example 8A, using similar protein loads for each condition tested.

procaspase-3 = test: Proteolytic activity using procaspase-3 substrate (Western blot); assay type: biochemical; settings: partially purified preparation, 2 hours at 37° C.; antibody to full-length caspase-3
Description: Lysates which contain recombinant caspases produced by expression in E. coli often contain fragments indicative of autoprocessing. Because the autolysis in caspase-12 lysates observed in Example 3B above is indicative of enzymatic activity, the enzymatic activity of partially purified human caspase-12 lysates was evaluated using procaspase-3 as a potential substrate. Caspase-3 is an effector caspase, which is cleaved at Asp175 by initiator caspases-8 and -9 to give the mature 19 kDa and 11 kDa subunits of the active enzyme. Processing of procaspase-3 was evaluated by Western blot analysis using an antibody that binds to full-length caspase-3 and another antibody that binds to the larger B subunit and that is specific for activated enzyme.
For use as a substrate for caspase-12, procaspase-3 was immunoprecipitated from SH-EP cell lysates using an antibody to full-length caspase-3 (Upstate Biotechnology, Inc.) and isolated on Protein G-Plus/Protein A agarose (Oncogene Science). […] Caspase-3 processing/activation by caspase-12 was detected by incubating with an anti-caspase-3 antibody (Upstate Biotechnology) which recognizes all subunits of caspase-3. Following incubation with an anti-rabbit HRP-conjugated antibody (Santa Cruz Biotechnology), immunoreactivity was detected by chemiluminescence using SuperSignal West PICO reagent (Pierce). […]

SH-EP cells = test: Cleavage of exogenous hCaspase-12 in transfected SH-EP cells after αFas-antibody induction of the extrinsic cell death pathway (Western blot); assay type: cell-based; settings: 250 ng/ml αFas-antibody for 18 hours
Description: The role of hCaspase-12 in cell death pathways was examined using cells of a neuroblastoma cell line, SH-EP. In the extrinsic (or receptor-induced) cell death pathway, caspase-8 is the apical caspase that cleaves effector caspases such as caspase-3, which cleaves many cellular substrates. Caspase activation, indicated by cleavage of the proform of the enzyme in cell lysates, was evaluated by Western blot analysis.
The expression vector pIRES-hrGFP-1a harboring the hCaspase-12 or RIK-5 gene was transfected into SH-EP cells using Superfect transfection reagent (Qiagen). At 24 hours post-transfection, 250 ng/ml αFas-antibody (CH-11, Upstate Biotechnology) was added and incubated for 18 hours to induce the extrinsic cell death pathway. Culture medium and cells were harvested and lysed in detergent buffer. Cleavage of exogenous hCaspase-12 was evaluated by Western blot analysis using anti-human caspase-12 antibody (prepared against peptide WSHHLEEIFQKVQHSFE as described in Example 4).

DEVD-R110 = test: Homogeneous Caspase Assay, fluorimetric, release of rhodamine-110 from DEVD-R110; assay type: biochemical; settings: partially purified protein preparation; two-hour incubation of DEVD-R110 substrate
Description: The enzymatic activity of the partially purified hCaspase-12 and ΔCARD proteins was further evaluated in a fluorimetric assay allowing quantitation. The caspase activity of partially purified hCaspase-12 and ΔCARD protein preparations was compared to a control (non-caspase protein) preparation, using the Homogeneous Caspase Assay (Roche Biochemicals) according to the manufacturer's protocol. The assay measures the amount of free rhodamine-110, following its release from the substrate DEVD-R110, a caspase recognition sequence. Following a two-hour incubation of DEVD-R110 substrate with dilutions of the various protein preparations, free rhodamine-110 was quantitated fluorimetrically. Measured fluorescence intensity (RFU) for each preparation was 807 for hCaspase-12, 445 for ΔCARD, and 31 for the control.

calpain II = biological target: T1, calpain II (Homo sapiens, UniProt P17655); test: Calpain II cleavage of human caspase-12 in vitro (Western blot); assay type: biochemical; settings: affinity-purified protein, 0.012 U/μl calpain II activated by 5 mM CaCl2
T1 construct: purchased Calbiochem
T1 sequence (P17655 1-700): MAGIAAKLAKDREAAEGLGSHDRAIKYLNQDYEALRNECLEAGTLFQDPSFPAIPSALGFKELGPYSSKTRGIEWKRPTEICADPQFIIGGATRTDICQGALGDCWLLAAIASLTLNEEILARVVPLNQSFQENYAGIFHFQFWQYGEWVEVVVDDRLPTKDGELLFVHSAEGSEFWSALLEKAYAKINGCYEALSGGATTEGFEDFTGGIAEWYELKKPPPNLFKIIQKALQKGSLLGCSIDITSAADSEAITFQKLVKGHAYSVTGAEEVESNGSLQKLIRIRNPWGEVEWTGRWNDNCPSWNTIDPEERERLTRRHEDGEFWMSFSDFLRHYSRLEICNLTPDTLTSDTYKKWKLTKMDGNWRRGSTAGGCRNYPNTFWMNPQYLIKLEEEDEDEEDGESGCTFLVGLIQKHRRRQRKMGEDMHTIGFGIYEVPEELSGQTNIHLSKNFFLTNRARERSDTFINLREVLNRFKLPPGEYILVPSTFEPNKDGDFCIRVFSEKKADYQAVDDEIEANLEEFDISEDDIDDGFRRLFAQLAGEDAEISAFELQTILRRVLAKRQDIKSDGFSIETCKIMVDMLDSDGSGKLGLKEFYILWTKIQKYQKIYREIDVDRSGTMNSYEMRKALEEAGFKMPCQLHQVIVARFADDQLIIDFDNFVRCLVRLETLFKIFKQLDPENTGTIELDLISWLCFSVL
T1 sequence (P04632 1-268 partner): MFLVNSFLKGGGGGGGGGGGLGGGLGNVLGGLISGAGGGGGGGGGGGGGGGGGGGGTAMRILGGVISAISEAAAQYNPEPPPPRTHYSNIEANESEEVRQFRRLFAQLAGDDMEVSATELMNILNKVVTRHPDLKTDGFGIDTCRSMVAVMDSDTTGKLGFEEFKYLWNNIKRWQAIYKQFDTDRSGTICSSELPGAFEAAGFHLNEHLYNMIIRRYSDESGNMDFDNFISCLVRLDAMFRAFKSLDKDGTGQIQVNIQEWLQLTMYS
Description: The relationship between calpain and caspase-12 was explored in vitro as follows. Affinity-purified hCaspase-12 and ΔCARD caspase-12 prepared as described in Example 3B above, were incubated with 0.012 U/μl calpain II (Calbiochem) in solutions containing 150 mM NaCl, 20 mM Tris-HCl, pH 7.5, and 1 mM DTT. Calpain II was activated by the addition of 5 mM CaCl2, while corresponding control cultures were not activated by addition of calcium. Cleavage of human caspase-12 was evaluated by Western blot analysis as described in Example 8A above. […] Thus, the activation and processing of caspase-12 is closely tied to cellular calcium levels. It is anticipated that calpain will process caspase-12 by recognizing the cleavage site “ASADT” at positions 269-272 of hCaspase-12 (SEQ ID NO: 77), with cleavage occurring between residues 271 and 272. Because cellular calcium is an important regulatory feature in health and disease, the signaling pathway to caspase-12 may have multiple branches that can result in activation of this caspase.

Molecule | Induction of GRP 78 (GRP 78) | Induction of caspase-12 protein [1] | Processing of procaspase-3 to mature subunits (procaspase-3) | Cleavage of exogenous protein in cultures undergoing apoptosis (SH-EP cells) | Measured fluorescence intensity (RFU), free rhodamine-110 (DEVD-R110) | Cleavage by calpain II (calpain II)
tunicamycin | induction | strong induction | – | – | – | –
B1 | – | – | lower molecular weight bands indicative of cleaved mature subunits were observed | cleaved | 445 RFU | cleaves
